Non-standard residues stand in square brackets, D forms with d. No end group written: not given here. Aib = CC(C)(N)C(=O)O
T1: human scavenger receptor class B, type 1 (SR-BI) (human, UniProt Q8WTV0 1-552)
T1 sequence (looked up): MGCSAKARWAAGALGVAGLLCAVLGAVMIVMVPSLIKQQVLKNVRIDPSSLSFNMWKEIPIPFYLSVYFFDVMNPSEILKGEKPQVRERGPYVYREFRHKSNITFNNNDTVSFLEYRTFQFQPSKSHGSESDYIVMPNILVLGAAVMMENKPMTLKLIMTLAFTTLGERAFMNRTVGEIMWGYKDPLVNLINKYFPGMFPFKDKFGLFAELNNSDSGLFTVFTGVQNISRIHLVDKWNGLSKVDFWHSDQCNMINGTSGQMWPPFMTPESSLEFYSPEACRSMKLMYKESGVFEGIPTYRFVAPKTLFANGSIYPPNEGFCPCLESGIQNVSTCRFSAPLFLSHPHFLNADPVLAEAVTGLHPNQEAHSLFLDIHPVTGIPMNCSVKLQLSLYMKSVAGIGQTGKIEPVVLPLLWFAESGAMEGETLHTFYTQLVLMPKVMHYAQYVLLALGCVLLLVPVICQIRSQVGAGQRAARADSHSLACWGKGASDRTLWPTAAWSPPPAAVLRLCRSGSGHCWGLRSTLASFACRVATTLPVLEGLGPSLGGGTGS

B1: DiI-labeled PALM prepared with the peptide of SEQ ID NO: 35 (peptide)
peptide: DVFQKL[Aib]ELFNQL[Aib]EKWKQV
modifications: also: formulated as DiI-labeled peptide amphiphile lipid micelle with POPC and egg sphingomyelin
B2: DiI-labeled PALM prepared with the peptide of SEQ ID NO: 25 (peptide)
peptide: DVFQKL[Aib]ELFNQLLEKWKQV
modifications: also: formulated as DiI-labeled peptide amphiphile lipid micelle with POPC and egg sphingomyelin
B3: DiI-labeled PALM prepared with the peptide of SEQ ID NO: 27 (peptide)
peptide: DV[Aib]QKLFELFNQLLEKWKQV
modifications: also: formulated as DiI-labeled peptide amphiphile lipid micelle with POPC and egg sphingomyelin
B4: DiI-labeled PALM prepared with the peptide of SEQ ID NO: 32 (peptide)
peptide: DV[Aib]QKFLELFNQLLEKWKQV
modifications: also: formulated as DiI-labeled peptide amphiphile lipid micelle with POPC and egg sphingomyelin
B5: DiI-labeled PALM prepared with the peptide of SEQ ID NO: 5 (peptide)
peptide: DVFQ[Aib]LKELLNQLLEKFKQV
modifications: also: formulated as DiI-labeled peptide amphiphile lipid micelle with POPC and egg sphingomyelin

What was measured:
[1] = molecular target: human scavenger receptor class B, type 1 (SR-BI) (human) (UniProt Q8WTV0); assay: cell-based or functional assay
[2] = Stability of peptide/phospholipid complexes by visual inspection; assay type: physicochemical; settings: SM, PC/SM 70/30, SEQ ID No. 25: peptide to phospholipids 1/4
Protocol: Separate stock solutions of peptide and phospholipids were prepared in a solvent mixture composed of 80% tert-butyl alcohol (TBA) and 20% water to obtain separate solutions of 10 mM peptide, 20 mM 1,2-dioleoyl-sn-glycero-3-phosphocholine (DOPC) or 20 mM 1-palmitoyl-2-oleoyl-phosphatidylcholine (POPC) and 20 mM egg SM. […] The solutions were combined in a 1.5 ml glass vial, frozen (−70° C.), and lyophilized at −5 to −10° C. overnight. The resultant lyophilized cakes were rehydrated by addition of Dulbecco's phosphate buffered saline followed by gentle swirling of the contents. Formation of PALM was completed by incubating the PALM solution at 50° C. for 10 minutes. […] The qualities of the PALM preparations were evident in their appearance. A visually clear preparation indicated any nanoparticles that had formed were less than approximately 40 nm diameter, based on the Tyndall effect.

SR-BI = assay: DiI uptake from DiI-labeled PALM or HDL by BHK(SR-BI) cells, SR-BI induced or un-induced; assay type: cell-based, human; settings: for Un-induced DiI Uptake: un-induced BHK(SR-BI) cells
Protocol: A 40 μl aliquot of 10 mM peptide was combined with 56 μl of 20 mM POPC. 24 μl 20 mM SM(egg) and 16 μl 2.5 mM DiI in a small glass vial. The peptide and lipid solutions were prepared in 80% TBA/20% water. The DiI stock was prepared in 92% TBA/8% water. The combined solution was lyophilized and the resultant cake was rehydrated by addition of 0.2 ml of Dulbecco's phosphate buffered saline. The solution was briefly swirled, water bath sonicated (for approx. 15 sec.) and placed in a 50° C. heating block for 20 minutes.
SR-BI interaction studies are done with BHK(SR-BI) cells stably transfected with an inducible human SR-BI gene by means of the GeneSwitch™ System (Invitrogen) (Vickers et al. (2011) Nat. Cell Biol. 13:423-433) . The cells were plated (96-well plate) (8000 cells/well) in growth medium (Dulbecco's modified Eagle medium containing 10% fetal bovine serum) containing 200 μg/ml each of zeocin and hygromycin. After 24 hours incubation, the growth medium was removed and replaced with 0.2% bovine serum albumin in Dulbecco's modified Eagle medium. The medium of cells to be induced for SR-BI expression also contained 10 nM mifepristone, added from a DMSO stock solution. DMSO alone was added to the medium of uninduced cells. The induction medium was removed after 24 hours and replaced with medium containing DiI-labeled PALM (32 μg peptide/ml) or DiI-labeled HDL (19 μg protein/mL) (Kalen Biomedical, Montgomery Village, MD). The test media were prepared by diluting an aliquot of DiI-labeled PALM (Example 10) or the DiI-labeled HDL in 0.2% bovine serum albumin in Dulbecco's modified Eagle medium. The solutions were passed through 0.2 μm pore size, polyethersulfone, sterilization filters before use. The cells were incubated for 4 hours. Next, the cells were washed 3 times with 0.1% albumin in Dulbecco's phosphate buffered saline (with calcium and magnesium). The last wash was replaced with 200 μl/well of t-butanol/water (95%/5%). The covered plate was left to stand at room temp (20-21° C.) for 30 min with occasional shaking. The fluorescence in each well was detected at 520 nm excitation and 580 nm emission with a 550 nm cutoff filter on a […] Gemini fluorescence plate reader (FIG. 9).

[3] = molecular target: T1, human scavenger receptor class B, type …; assay: cell-based or functional assay
[4] = complex of the peptide with POPC, C16PTX/PL 0
[5] = complex of the peptide with POPC, C16PTX/PL 0.1
[6] = 4 hours, PALM prepared with the peptide 32 μg/ml, HDL 19 μg/ml, average (n = 4) ± SEM
[7] = complex of the peptide with DOPC, C16PTX/PL 0
[8] = complex of the peptide with DOPC, C16PTX/PL 0.1

Row | Molecule | Un-induced DiI Uptake (SR-BI; [6]) [pmol/µg/mL] | Increase Over Un-induced (DiI uptake, BHK(SR-BI) cells) [3] [%] | Induced DiI Uptake (pmol/ug/ml), BHK(SR-BI) cells induced for human SR-BI, 4 h [3] [pmol/µg/mL] | also measured
1 | DiI-labeled human HDL (Kalen Biomedical) (from UniProt P02647 25-267) |  |  |  | Increase Over Un-induced (DiI uptake, BHK(SR-BI) cells) [1]: 561%; Induced DiI Uptake (pmol/ug/ml), BHK(SR-BI) cells induced for human SR-BI, 4 h [1]: 0.86 pmol/µg/mL
2 | DVFQKLVELFNQLLEKWKQV [SEQ ID NO: 26] | 0.49 ± 0.04 |  |  | Stability of Peptide/Phospholipid Complexes by Visual Inspection [2, 4]: Clear (A visually clear preparation indicated any nanoparticles that had formed were less than approximately 40 nm diameter); Stability of Peptide/Phospholipid Complexes by Visual Inspection [2, 5]: Turbid
3 | DVFQ{AIB}LKELFNQLLEKWKQV (DVFQ[Aib]LKELFNQLLEKWKQV) [SEQ ID NO: 3] | 0.16 ± 0.01 |  |  | 
4 | DV{AIB}QKFLELFNQLLEKWKQV (DV[Aib]QKFLELFNQLLEKWKQV) [SEQ ID NO: 32] | 0.28 ± 0.02 |  |  | Stability of Peptide/Phospholipid Complexes by Visual Inspection [2, 7]: Turbid; Stability of Peptide/Phospholipid Complexes by Visual Inspection [2, 8]: Turbid; Stability of Peptide/Phospholipid Complexes by Visual Inspection [2, 4]: Clear (A visually clear preparation indicated any nanoparticles that had formed were less than approximately 40 nm diameter); Stability of Peptide/Phospholipid Complexes by Visual Inspection [2, 5]: Turbid
5 | HDL: high density lipoprotein, human, labeled with DiI (Kalen Biomedical) [reference compound] | 0.13 ± 0.02 |  |  | Induced DiI Uptake (SR-BI; SR-BI induced (10 nM mifepristone) BHK(SR-BI) cells, 4 hours, PALM prepared with the peptide 32 μg/ml, HDL 19 μg/ml, average (n = 4) ± SEM): 0.86 ± 0.03 pmol/µg/mL; Increase Over Un-induced (SR-BI; induced vs un-induced DiI uptake): 561%
6 | DVFQKL{AIB}ELFNQL{AIB}EKWKQV (DVFQKL[Aib]ELFNQL[Aib]EKWKQV) [SEQ ID NO: 35] | 0.35 ± 0.01 |  |  | 
7 | DVFQKL{AIB}ELFNQLLEKWKQV (DVFQKL[Aib]ELFNQLLEKWKQV) [SEQ ID NO: 25] | 0.24 ± 0.01 |  |  | Stability of Peptide/Phospholipid Complexes by Visual Inspection [2, 7]: Clear (A visually clear preparation indicated any nanoparticles that had formed were less than approximately 40 nm diameter); Stability of Peptide/Phospholipid Complexes by Visual Inspection [2, 8]: Clear (A visually clear preparation indicated any nanoparticles that had formed were less than approximately 40 nm diameter); Stability of Peptide/Phospholipid Complexes by Visual Inspection [2, 4]: Clear (A visually clear preparation indicated any nanoparticles that had formed were less than approximately 40 nm diameter); Stability of Peptide/Phospholipid Complexes by Visual Inspection [2, 5]: Clear (A visually clear preparation indicated any nanoparticles that had formed were less than approximately 40 nm diameter)
8 | DVFQ{AIB}LKELLNQLLEKFKQV (DVFQ[Aib]LKELLNQLLEKFKQV) [SEQ ID NO: 5] | 0.54 ± 0.03 |  |  | 
9 | DV{AIB}QKLFELFNQLLEKWKQV (DV[Aib]QKLFELFNQLLEKWKQV) [SEQ ID NO: 27] | 0.34 ± 0.01 |  |  | Stability of Peptide/Phospholipid Complexes by Visual Inspection [2, 7]: Turbid; Stability of Peptide/Phospholipid Complexes by Visual Inspection [2, 4]: Clear (A visually clear preparation indicated any nanoparticles that had formed were less than approximately 40 nm diameter); Stability of Peptide/Phospholipid Complexes by Visual Inspection [2, 5]: Turbid
10 | B1 |  | 264 | 1.26 | 
11 | B2 |  | 245 | 0.83 | 
12 | DVFQKLVELFNQLLEKWKQV (also: peptide amphiphile lipid micelle with POPC, egg sphingomyelin, DiI) [DiI-labeled PALM prepared with the peptide of SEQ ID NO: 26] |  | 65 | 0.81 | 
13 | B3 |  | 90 | 0.66 | 
14 | B4 |  | 221 | 0.9 | 
15 | B5 |  | 73 | 0.93 | 
16 | DVFQ[Aib]LKELFNQLLEKWKQV (also: formulated in a micelle with POPC, egg sphingomyelin and DiI) [DiI-labeled PALM prepared with the peptide of SEQ ID NO: 3] |  | 88 | 0.29 | 

Source: patent US20240189230A1, “PALM FOR THE TREATMENT OF CHEMOTHERAPY-INDUCED PERIPHERAL NEUROPATHY INCIDENTAL TO THE TREATMENT OF CANCER” (Peptinovo Biopharma Inc., priority 2019, published 2024)
